According to US20190381184A1:

Columns and labels:
[1] = target: CXCL12; assay: Bio-Layer Interferometry; CXCL12 immobilized on AR2G biosensor, different concentrations of CXCL12 trap
[2] = target: CXCL12; assay: Bio-Layer Interferometry (BLI)
[3] = target: CXCL12; assay: Bio-Layer Interferometry, CXCL12 immobilized on the AR2G biosensor, CXCL12 trap at 500, 250 and 125 nM
[4] = target: CXCL12; assay: cell-based or functional assay

B1: CXCL12 trap (engineered VH-linker-VL fusion protein, expressed in and purified from 293T cells) (scFv, V domains shown, not shown: small tags and cut ends)
VH: EVQLVESGGGLVQPGGSLRLSCAASGFSLTVYSVHWVRQAPGKGLEWVGALWGSGGTEYNSNLKSRFTISRDTSKNTVYLQMNSLRAEDTAVYYCARDQGLNYGSLFDYWGQGTLVTVSS
VL: DIQMTQSPSSLSASVGDRVTITCRASESISYSLSWYQQKPGKAPKLLIYNAVKLESGVPSRFSGSGSGTDFTLTISSLQPEDFATYYCKQYWNTPFTFGQGTKVEIKR
modifications: flexible linker; C-terminal E tag, His6 tag
Which results are given for B1?
Kd [1]: 4 nM; Kd [2]: 4 nM; Kd [3]: 4.1 nM; koff [3]: 3.64e-05 s⁻¹; kon [3]: 8850 M⁻¹ s⁻¹; invasion of CT-26 FL3 cells stimulated with CXCL12 (100.0 ng/ml) [4]: 12 µg/mL; migration of CT-26 FL3 cells stimulated with CXCL12 (100.0 ng/ml) [4]: 8 µg/mL; one-half maximal inhibition [ND50] against biological active CXCL12 (100 ng/ml) in vitro [4]: 120 nM; one-half maximal inhibition [ND50] of CT-26 FL3 cell migration stimulated with CXCL12 (100 ng/ml) [4]: 120 nM
